Data: IntAct's records for PubMed 25170080

B1: Protein Nef (Human immunodeficiency virus type 1 group M subtype B (isolate HXB2) (HIV-1)), P04601 (parent)
chain: MGGKWSKSSVIGWPTVRERMRRAEPAADRVGAASRDLEKHGAITSSNTAATNAACAWLEAQEEEEVGFPVTPQVPLRPMTYKAAVDLSHFLKEKGGLEGLIHSQRRQDILDLWIYHTQGYFPDWQNYTPGPGVRYPLTFGWCYKLVPVEPDKIEEANKGENTSLLHPVSLHGMDDPEREVLEWRFDSRLAFHHVARELHPEYFKNC
partner: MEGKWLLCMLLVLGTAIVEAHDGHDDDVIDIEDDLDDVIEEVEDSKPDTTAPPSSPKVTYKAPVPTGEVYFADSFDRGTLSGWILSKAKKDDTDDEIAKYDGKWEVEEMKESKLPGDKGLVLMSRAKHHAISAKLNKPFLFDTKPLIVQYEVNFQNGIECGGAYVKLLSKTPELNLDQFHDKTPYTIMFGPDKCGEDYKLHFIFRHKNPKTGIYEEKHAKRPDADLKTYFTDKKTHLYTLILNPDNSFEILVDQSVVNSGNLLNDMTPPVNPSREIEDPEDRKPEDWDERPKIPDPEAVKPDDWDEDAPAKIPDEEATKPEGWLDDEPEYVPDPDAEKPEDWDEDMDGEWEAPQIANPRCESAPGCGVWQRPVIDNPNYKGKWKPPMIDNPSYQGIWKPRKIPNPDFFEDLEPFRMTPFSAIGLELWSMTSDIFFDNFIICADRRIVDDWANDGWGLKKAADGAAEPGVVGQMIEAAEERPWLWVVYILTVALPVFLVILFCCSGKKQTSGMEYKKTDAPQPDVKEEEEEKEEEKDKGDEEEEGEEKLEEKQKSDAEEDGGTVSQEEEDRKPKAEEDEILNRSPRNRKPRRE

Variants of: B1
Settings: with calx_human CANX

Variant	effect of a mutation on the interaction
G2A	disrupting interaction strength
